For test [1], the target named is ARPF-K(5-Fam)-NH2-peptide. The test is described as follows: fluorescence polarisation.
The target in test [2] is X-linked inhibitor of apoptosis protein (XIAP) (Homo sapiens, UniProt P98170). Put plainly: competitive fluorescence polarization with ARPF-FAM probe. The class given is binding. (Polarisation of emitted light reports the rotation of a fluorescent probe.)
Chain of X-linked inhibitor of apoptosis protein (XIAP) (P98170 238-359): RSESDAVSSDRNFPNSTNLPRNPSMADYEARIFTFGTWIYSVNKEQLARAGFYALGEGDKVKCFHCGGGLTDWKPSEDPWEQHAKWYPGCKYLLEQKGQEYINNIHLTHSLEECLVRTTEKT

Turning to “recombinant XIAP-BIR3 domain protein (domain or fragment)”, the Kd in test [1] was 0.145 µM.

In turn, `CCCCCCCCCCCC1=C(O)C(=O)C=C(O)C1=O` [embelin] showed a Ki in test [2] of 22.3 µM.

As a reminder, the Kd is the equilibrium constant for the complex coming apart. As a reminder, the Ki is a measure of affinity in units of concentration, obtained from inhibition or displacement. A lower Ki goes with higher affinity.
